Reference: patent US20240417475A1 (AFFIMED, published 2024)

Assays:
[1] = molecular target: T1, CD16A endogenously expressed on primary human NK cells (human, UniProt P08637 17-254); experiment: flow cytometry on primary human NK cells, biotinylated antibody, 37 C, without IgG, mean of 4
Protocol: (§1) 4° C., and resuspended in 50 μL/well of diluted antibody constructs. […] After 40-50 minutes' incubation at 37° C., cells were washed 3-times with ice-cold FACS buffer. […] After the final incubation step, cells were washed 2-times with ice-cold FACS buffer, and the cell pellet was resuspended in 50 μL FACS buffer. Fluorescence intensity of >1×10⁴ viable cells was analyzed by flow cytometry and the median fluorescence intensity (MFI) was determined for each sample.
(§2) Equilibrium dissociation constants (KD) of antibody binding were calculated by plotting MFI values and fitting a non-linear regression model for one-site binding to hyperbolic dose-response curves using GraphPad Prism.

[2] = molecular target: T2, human FOLR1 endogenously expressed on tumor cell lines (human, UniProt P15328 25-234); experiment: flow cytometry on OVCAR-3 cells, 37 C, one-site fit of MFI, mean
T2 construct: whole, on cells; also called FOLR1-positive tumor cell lines; FOLR1+ target cells
T2 sequence (P15328 25-234): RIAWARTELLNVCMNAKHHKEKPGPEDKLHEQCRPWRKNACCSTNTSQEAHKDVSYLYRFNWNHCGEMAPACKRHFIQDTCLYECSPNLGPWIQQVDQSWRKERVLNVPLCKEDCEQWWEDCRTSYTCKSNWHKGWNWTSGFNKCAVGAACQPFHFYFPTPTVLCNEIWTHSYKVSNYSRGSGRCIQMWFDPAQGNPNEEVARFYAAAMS
Protocol: (§3) Cells were collected and centrifuged at 400×g, 5 min, 4° C. Cell pellets were resuspended in FACS buffer (PBS (Invitrogen, cat.: 392-0434) containing 2% h.i. FCS (Invitrogen, cat.: 10500-064), and 0.1% sodium azide (Sigma, cat.: S8032)) at 1-5×10⁶ cells/mL. 100 μL/well of the cell suspension were transferred into U-shaped, 96-well micro plates (0.1-0.5×10⁶ cells per well), cells were pelleted at 400×g, 5 min, 4° C., and resuspended in 100 μL/well of serial dilutions of the indicated antibodies in FACS buffer. After 40-50 min incubation at 37° C., cells were washed 3-times with ice-cold FACS buffer. […] After the final incubation step, cells were washed 2-times with ice-cold FACS buffer, and the cell pellet was resuspended in 100 μL FACS buffer. Fluorescence intensities of >1×10⁴ viable cells were analyzed by flow cytometry and the median fluorescence intensity (MFI) was determined for each sample.
(§4) Equilibrium dissociation constants (KD) of antibody binding, mean and standard deviation (SD) were calculated by plotting MFI values and fitting a non-linear regression model for one-site binding to hyperbolic dose-response curves using GraphPad Prism for Windows (v9; GraphPad Software; La Jolla California USA).
(§5) Specific antibody binding capacity (SABC) as a marker for FOLR1 expression level on cells was determined on all tumor cell lines using QIFIKIT.

[3] = molecular target: T2, human FOLR1 endogenously expressed on …; experiment: flow cytometry on HCC-827 cells, 37 C, one-site fit of MFI, mean
Protocol: as §3, §4, §5

[4] = molecular target: T1, CD16A endogenously expressed on primary …; experiment: flow cytometry on primary human NK cells, with against without 10 mg/mL polyclonal human IgG
Protocol: as §1, §2

[5] = molecular target: T2, human FOLR1 endogenously expressed on …; experiment: flow cytometry on IGROV-1 cells, 37 C, one-site fit of MFI, mean
Protocol: as §3, §4, §5

[6] = molecular target: T2, human FOLR1 endogenously expressed on …; experiment: flow cytometry on NCI-H2110 cells, 37 C, one-site fit of MFI, mean
Protocol: as §3, §4, §5

[7] = molecular target: T1, CD16A endogenously expressed on primary …; experiment: flow cytometry on primary human NK cells, with 10 mg/mL polyclonal human IgG as competitor, range of 4 experiments
Protocol: as §1, §2

[8] = molecular target: T1, CD16A endogenously expressed on primary …; experiment: flow cytometry on primary human NK cells, without IgG, range of 4 experiments
Protocol: as §1, §2

[9] = molecular target: T2, human FOLR1 endogenously expressed on …; experiment: flow cytometry on IGROV-1 cells (FOLR1 high) at 37 °C, FITC anti-human IgG detection
Procedure, shortened: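 Cells in PBS with 2% h.i. FCS and 0.1% sodium azide, 0.1-0.5×10⁶ per well, were incubated 40-50 min with serial antibody dilutions, then washed with ice-cold buffer. Median fluorescence intensity of >1×10⁴ viable cells was determined by flow cytometry.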

[10] = molecular target: T2, human FOLR1 endogenously expressed on …; experiment: flow cytometry on OVCAR-3 cells (FOLR1 medium) at 37 °C, FITC anti-human IgG detection
Protocol: as §3

[11] = molecular target: T1, CD16A endogenously expressed on primary …; experiment: flow cytometry on primary human NK cells at 37 °C, biotinylated antibody, streptavidin-FITC, in the presence of 10 mg/mL polyclonal human IgG (competitor)
Protocol: (§6) Frozen NK cells were thawed, and viability was determined with trypan blue (Sigma-Aldrich, cat.: T8154). Cells have been centrifuged at 400×g, 5 min, 4° C. Cell pellets were resuspended in FACS buffer PBS (Invitrogen, cat.: 392-0434) containing 2% h.i. FCS (Invitrogen, cat.: 10500-064), and 0.1% sodium azide (Sigma, cat.: S8032) at 2×10⁶ cells/mL. 100 μL/well of the cell suspension were transferred into U-shaped 96 well plates, cells were pelleted at 400×g, 5 min. 4° C., and resuspended in 50 μL/well of diluted antibody constructs. […] After 40-50 minutes' incubation at 37° C., cells were washed 3-times with ice-cold FACS buffer. […] After the final incubation step, cells were washed 2-times with ice-cold FACS buffer, and the cell pellet was resuspended in 50 μL FACS buffer. Fluorescence intensity of >1×10⁴ viable cells was analyzed by flow cytometry and the median fluorescence intensity (MFI) was determined for each sample.

[12] = molecular target: T1, CD16A endogenously expressed on primary …; experiment: flow cytometry on primary human NK cells at 37 °C, biotinylated antibody, streptavidin-FITC, without polyclonal human IgG
Protocol: as §6

T1 sequence (P08637 17-254 limits assumed): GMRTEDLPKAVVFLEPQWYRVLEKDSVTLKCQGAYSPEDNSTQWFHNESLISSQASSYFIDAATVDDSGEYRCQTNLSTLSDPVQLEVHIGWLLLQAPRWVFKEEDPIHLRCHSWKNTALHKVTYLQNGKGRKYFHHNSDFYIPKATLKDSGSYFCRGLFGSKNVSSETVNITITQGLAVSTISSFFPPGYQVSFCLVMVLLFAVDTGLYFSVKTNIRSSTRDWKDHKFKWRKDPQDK

- Kd [1]: 4.3 nM
- Kd [2]: 1.7 nM
- Kd [3]: 2.7 nM
- fold loss in KD induced by IgG [4]: 5.3 fold
- Kd [5]: 3.7 nM
- Kd [6]: 2.5 nM
- Kd [7]: 14.3 to 36.4 nM
- Kd [8]: 3.7 to 5.4 nM
- EC50 (read off the curve) [9]: ~3 nM
- EC50 (read off the curve) [10]: ~2 nM
- EC50 (read off the curve) [11]: ~20 nM
- EC50 (read off the curve) [12]: ~4 nM
B1: scFv-IgAb_387 (FOLR1_1×CD16a3) (bispecific antibody)
heavy: EVQLVESGGGVVQPGRSLRLSCSASGFTFSGYGLSWVRQAPGKGLEWVAMISSGGSYTYYADSVKGRFAISRDNAKNTLFLQMDSLRPEDTGVYFCARHGDDPAWFAYWGQGTPVTVSSASTKGPSVFPLAPSSKSTSGGTAALGCLVKDYFPEPVTVSWNSGALTSGVHTFPAVLQSSGLYSLSSVVTVPSSSLGTQTYICNVNHKPSNTKVDKKVEPKSCDKTHTCPPCPAPEFEGGPSVFLFPPKPKDTLMISRTPEVTCVVVAVSHEDPEVKFNWYVDGVEVHNAKTKPREEQYNSTYRVVSVLTVLHQDWLNGKEYKCKVSNKALPAPIEKTISKAKGQPREPQVYTLPPSREEMTKNQVSLTCLVKGFYPSDIAVEWESNGQPENNYKTTPPVLDSDGSFFLYSKLTVDKSRWQQGNVFSCSVMHEALHNHYTQKSLSLSPGGGGGSGGGGSGGGGSGGGGSGGGGSGGGGSSYELTQPLSVSVALGQTARITCGGNNIGSKSVHWYQQKPGQAPVLVIYQDKKRPSGIPERFSGSNSGNTATLTISRAQAGDEADYYCQVWDDYIVLFGCGTKLTVLGGSGGSGGSGGSGGSGGSGGSQVQLVQSGAEVKKPGASVKVSCKASGYTFTNYYMQWVRQAPGQCLEWMGIINPSGGVTSYAQKFQGRVTMTRDTSTSTVYMELSSLRSEDTAVYYCARGSAYYYDFADYWGQGTLVTVSSG
light: DIQLTQSPSSLSASVGDRVTITCSVSSSISSNNLHWYQQKPGKAPKPWIYGTSNLASGVPSRFSGSGSGTDYTFTISSLQPEDIATYYCQQWSSYPYMYTFGQGTKVEIKRTVAAPSVFIFPPSDEQLKSGTASVVCLLNNFYPREAKVQWKVDNALQSGNSQESVTEQDSKDSTYSLSSTLTLSKADYEKHKVYACEVTHQGLSSPVTKSFNRGEC
modifications: Chemically biotinylated (NHS-PEG4-biotin) in Example 22 only.
notes: Tetravalent bispecific scFv-IgAb; also called FOLR1×CD16A scFv-IgAb_387; FOLR1/CD16A scFv-IgAb_387; copies: 2 + 2
